Results: the supplement of paper PMC7125110
± gives the standard error. For some assays here: Fewer inactive variants are shown than the library holds.

B1: glmS ribozyme (parent)
chain: AUAAAAGCGCCAGAACUACAGAAAUGUAGUUGACGAGGAGGAGGUUUAUCGAAUUUUCGGCGGAUGCCUCCAAA

How the values were obtained:
Conditions in all cases: with glucosamine-6-phosphate
glucosamine-6-phosphate [1] = variants of: B1; assay: kcat; higher = faster cleavage; RNA array
Summary of the method: (§1)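 Glucosamine-6-phosphate (40 μM to 10 mM) in HEPES/KCl/Mg(OAc)2 buffer was flowed over sequenced MiSeq chips, and tiles were imaged over ~14 h. Barcoded ribozyme variants there had been transcribed in situ by E. coli RNA polymerase and were tracked through a hybridised Cy3 probe at 37 °C. One- or two-exponential decay fits to per-tile medians, normalised to baseline and to non-cleaving reference variants, gave kobs. kcat and KM came from weighted Michaelis–Menten fits across concentrations.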

glucosamine-6-phosphate [2] = variants of: B1; assay: KM; higher = weaker cofactor use; RNA array
Summary of the method: as §1

glucosamine-6-phosphate [3] = variants of: B1; assay: self-cleavage kobs at 160 uM GlcN6P; higher = faster cleavage; RNA array
Summary of the method: as §1

glucosamine-6-phosphate [4] = variants of: B1; assay: self-cleavage kobs at 640 uM GlcN6P; higher = faster cleavage; RNA array
Summary of the method: as §1

glucosamine-6-phosphate [5] = variants of: B1; assay: self-cleavage kobs at 2500 uM GlcN6P; higher = faster cleavage; RNA array
Summary of the method: as §1

glucosamine-6-phosphate [6] = variants of: B1; assay: self-cleavage kobs at 10000 uM GlcN6P; higher = faster cleavage; RNA array
Summary of the method: as §1

glucosamine-6-phosphate [7] = variants of: B1; assay: self-cleavage kobs at 40 uM GlcN6P; higher = faster cleavage; RNA array
Summary of the method: as §1

| Variant | kcat (glucosamine-6-phosphate [1]) [s⁻¹] | KM (glucosamine-6-phosphate [2]) [µM] | self-cleavage kobs at 160 uM GlcN6P (glucosamine-6-phosphate [3]) [s⁻¹] | self-cleavage kobs at 640 uM GlcN6P (glucosamine-6-phosphate [4]) [s⁻¹] | self-cleavage kobs at 2500 uM GlcN6P (glucosamine-6-phosphate [5]) [s⁻¹] | self-cleavage kobs at 10000 uM GlcN6P (glucosamine-6-phosphate [6]) [s⁻¹] | self-cleavage kobs at 40 uM GlcN6P (glucosamine-6-phosphate [7]) [s⁻¹] |
| --- | --- | --- | --- | --- | --- | --- | --- |
| A39C G66U | 0.00114 ± 0.00017 | 3090 ± 910 | 8.13e-05 ± 2.3e-05 | 0.000198 ± 3.9e-05 | 0.000424 ± 8.2e-05 | 0.000908 ± 9.9e-05 | – |
| G32C U54G | 9.47e-05 ± 8e-06 | 2550 ± 810 | – | – | 5.12e-05 ± 1.5e-05 | 7.5e-05 ± 8.5e-06 | – |
| A12G A64G | 0.000701 ± 0.00021 | 2560 ± 1100 | 6.59e-05 ± 1.7e-05 | 0.000128 ± 1.7e-05 | 0.000367 ± 5.3e-05 | 0.000537 ± 0.00017 | – |
| A15C U57A | 7.96e-05 ± 6.3e-06 | 2770 ± 750 | – | – | 3.94e-05 ± 1.2e-05 | 6.22e-05 ± 8.8e-06 | – |
| A52G U57C | 0.000378 ± 1.3e-05 | 1790 ± 110 | 2.83e-05 ± 1.3e-05 | 9.94e-05 ± 1e-05 | 0.000227 ± 3.1e-05 | 0.000314 ± 4.4e-05 | – |
| G9A U31A | 2.13e-05 ± 6.3e-07 | – | < 1e-05 | < 1e-05 | – | – | < 1e-05 |
| A12G A33G U57A G59U | < 1e-05 | – | – | < 1e-05 | < 1e-05 | – | – |
| U31C U57A | 2.49e-05 ± 2.1e-06 | – | – | – | 2.32e-05 ± 9.8e-06 | – | – |
| G37C C61A | < 1e-05 | – | – | – | – | – | – |
| U31G U47A | 0.00848 ± 0.0027 | 2290 ± 990 | 0.000474 ± 7e-05 | 0.00211 ± 0.00035 | 0.00332 ± 0.00063 | 0.00821 ± 0.0011 | 0.000201 ± 2.8e-05 |
| G29A C67U | 0.000866 ± 0.00021 | 742 ± 320 | 0.000247 ± 5.1e-05 | 0.00034 ± 5.8e-05 | 0.00056 ± 0.00012 | 0.00104 ± 0.00017 | 4.43e-05 ± 8.6e-06 |
| U54G U69A | 0.000109 ± 1.4e-05 | – | – | 0.000146 ± 3e-05 | 9.9e-05 ± 1.8e-05 | 0.000103 ± 1.9e-05 | 5.13e-05 ± 1.4e-05 |
| A52U U56G | 0.000175 ± 4.1e-05 | 5090 ± 2000 | – | 2.83e-05 ± 1.1e-05 | 5.36e-05 ± 9.7e-06 | 0.000122 ± 2.5e-05 | – |
| A48C U56C | 5.47e-05 ± 1.8e-06 | 357 ± 160 | – | < 1e-05 | 4.83e-05 ± 1.6e-05 | 5.27e-05 ± 1.2e-05 | – |
| C58U C67G | 3.65e-05 ± 2.5e-06 | – | – | 3.77e-05 ± 1.5e-05 | 3.68e-05 ± 1.4e-05 | 3.45e-05 ± 9.2e-06 | – |
| G43U A53C | 2.22e-05 ± 5.7e-07 | 7310 ± 400 | – | – | – | – | – |
